The text below walks through data of paper PMC5153698.

The experiment has as its target T1, human chemokine receptor CXCR4, C-terminally tagged with Rluc8 or mVenus (human), P61073.
T1 chain: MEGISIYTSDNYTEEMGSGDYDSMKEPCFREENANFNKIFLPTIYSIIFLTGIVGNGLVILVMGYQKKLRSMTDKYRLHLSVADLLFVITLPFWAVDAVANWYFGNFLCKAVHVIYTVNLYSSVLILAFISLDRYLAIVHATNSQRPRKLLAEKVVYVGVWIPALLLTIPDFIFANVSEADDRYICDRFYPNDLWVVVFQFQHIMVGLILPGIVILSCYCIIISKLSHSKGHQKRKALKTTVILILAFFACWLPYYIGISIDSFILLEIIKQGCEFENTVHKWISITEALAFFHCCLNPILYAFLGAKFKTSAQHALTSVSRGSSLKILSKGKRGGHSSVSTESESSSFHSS
In words: FRET or BRET. Particulars: remark: other sources report otherwise. On the technique in general: BRET reads energy transfer from a luciferase to a nearby fluorophore.

B1: human chemokine receptor CXCR4, C-terminally tagged with Rluc8 or mVenus, P61073 1-352 (receptor)
chain: T1 chain
With B1, the BRET50 is 0.11.
